Biological target: G protein of RSV A/Long (ATCC Cat. No. VR-26), on virus (Respiratory syncytial virus A/Long) (UniProt P20895)
Experiment: cell-based or functional assay

Chain of G protein of RSV A/Long (ATCC Cat. No. VR-26), on virus (Respiratory syncytial virus A/Long) (P20895 whole entry): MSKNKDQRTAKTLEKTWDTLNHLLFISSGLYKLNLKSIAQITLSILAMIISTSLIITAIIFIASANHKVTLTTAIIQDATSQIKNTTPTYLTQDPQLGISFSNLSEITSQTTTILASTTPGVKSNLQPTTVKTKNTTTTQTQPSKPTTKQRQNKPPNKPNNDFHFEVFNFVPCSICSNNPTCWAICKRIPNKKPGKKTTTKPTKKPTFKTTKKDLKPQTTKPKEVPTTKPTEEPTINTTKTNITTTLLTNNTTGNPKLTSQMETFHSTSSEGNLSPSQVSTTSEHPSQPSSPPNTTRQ

B1: CR9505 (an antibody based on 131-2G, comprising the heavy and light chain variable region of 131-2G, as disclosed in WO 2009/055711) (antibody, from another filing, V domains shown)
VH: EVQLQQSGPELVKPGTSVKISCKASGYSFTGFTMNWVKQSHGKNLEWFGLINPFNGNTGYNQKFKGKATLTVDKSSSTAFMELLSLTSEDSAVYYCARSGKSYDYEAWFTYWGQGTLVTVSA
VL: DIVMTQTTLSLPVSLGNQASISCRSSQTIVHTNGNTYLEWYLQKPGQSPKLLIYKVSNRFSGVPDRFSGSGSGTDFILNISRVEAEDLGVYYCFQGSHVPFTFGSGTKLEIKR
- Neutralization IC50, plaque reduction assay, RSV A/Long: 0.018 µg/mL

— patent US20160145322A1
